In the RNAGym collection of RNA variant scans (doi:10.7554/elife.80360):

B1: CPEB3 Ribozyme (parent)
chain: GGGGGCCACAGCAGAAGCGUUCACGUCGCGGCCCCUGUCAGAUUCUGGUGAAUCUGCGAAUUCUGCUGU

Variants of: B1
Assay: self-cleavage, relative activity (ratio to wild type); higher = more cleavage; co-transcriptional

First: C24A G65U
Second: C24A G68C
The self-cleavage of the first is lower: 0.303 for the first, 0.825 for the second.

First: C24A U26C
Second: C24A U36C
The self-cleavage of the first is higher: 0.507 for the first, 0.27 for the second.

Going from C24A U43C to C24A U49C, the self-cleavage rises from 0.631 to 0.74.

First: C24A U49G
Second: C24A U55A
The self-cleavage of the first is higher: 0.686 for the first, 0.617 for the second.

First: C24A U55C
Second: C24A U61A
The self-cleavage of the first is lower: 0.434 for the first, 0.452 for the second.

Going from C24A U61G to C24A U62G, the self-cleavage rises from 0.347 to 0.425.

Compared with C24A U64C, C24A U64G is higher in self-cleavage: 0.471 for the first, 0.508 for the second.

Going from C24A U67C to C24A U69C, the self-cleavage rises from 0.713 to 0.972.

Going from C24G A40U to C24G A42C, the self-cleavage rises from 0.14 to 0.385.

Going from C24G A51U to C24G A52C, the self-cleavage rises from 0.353 to 0.391.

Going from C24G A52U to C24G A60G, the self-cleavage falls from 0.409 to 0.264.

Compared with C24G C29G, C24G C29U is lower in self-cleavage: 0.194 for the first, 0.0935 for the second.

Compared with C24G C32A, C24G C33A is lower in self-cleavage: 0.224 for the first, 0.206 for the second.

First: C24G C33G
Second: C24G C35A
The self-cleavage of the first is higher: 0.201 for the first, 0.167 for the second.

Going from C24G C39A to C24G C39G, the self-cleavage rises from 0.214 to 0.324.

First: C24G C54U
Second: C24G C66U
The self-cleavage of the first is higher: 0.602 for the first, 0.502 for the second.

First: C24G G25U
Second: C24G G28C
The self-cleavage of the first is lower: 0.104 for the first, 0.224 for the second.

Compared with C24G G28U, C24G G31U is higher in self-cleavage: 0.13 for the first, 0.215 for the second.

Compared with C24G G37U, C24G G41A is lower in self-cleavage: 0.278 for the first, 0.247 for the second.

First: C24G G41U
Second: C24G G47C
The self-cleavage of the first is lower: 0.207 for the first, 0.502 for the second.

Going from C24G G48A to C24G G48C, the self-cleavage falls from 0.554 to 0.449.

Going from C24G G56C to C24G G58U, the self-cleavage rises from 0.245 to 0.387.

First: C24G G65C
Second: C24G G65U
The self-cleavage of the first is lower: 0.242 for the first, 0.243 for the second.

Compared with C24G G68C, C24G U26A is lower in self-cleavage: 0.578 for the first, 0.206 for the second.

First: C24G U26G
Second: C24G U38A
The self-cleavage of the first is higher: 0.344 for the first, 0.177 for the second.

First: C24G U43G
Second: C24G U44G
The self-cleavage of the first is lower: 0.249 for the first, 0.308 for the second.

Going from C24G U49A to C24G U49G, the self-cleavage falls from 0.59 to 0.565.

Compared with C24G U55C, C24G U62C is lower in self-cleavage: 0.292 for the first, 0.148 for the second.

First: C24G U64A
Second: C24G U67C
The self-cleavage of the first is lower: 0.325 for the first, 0.522 for the second.

First: C24G U67G
Second: C24G U69A
The self-cleavage of the first is lower: 0.508 for the first, 0.509 for the second.

Compared with C24G U69G, C24U A40C is lower in self-cleavage: 0.63 for the first, 0.228 for the second.

Going from C24U A42C to C24U A51G, the self-cleavage rises from 0.673 to 0.774.

First: C24U A51U
Second: C24U A52G
The self-cleavage of the first is lower: 0.785 for the first, 0.819 for the second.

Compared with C24U A52U, C24U A59U is lower in self-cleavage: 0.81 for the first, 0.414 for the second.

Going from C24U A60G to C24U A60U, the self-cleavage falls from 0.464 to 0.299.

Going from C24U C27A to C24U C32U, the self-cleavage rises from 0.229 to 0.805.

Going from C24U C35A to C24U C35G, the self-cleavage rises from 0.17 to 0.202.

First: C24U C39A
Second: C24U C39G
The self-cleavage of the first is lower: 0.315 for the first, 0.619 for the second.

First: C24U C39U
Second: C24U C45U
The self-cleavage of the first is lower: 0.549 for the first, 0.829 for the second.

Compared with C24U C54G, C24U C57A is lower in self-cleavage: 0.586 for the first, 0.309 for the second.

Going from C24U C63A to C24U C63U, the self-cleavage rises from 0.391 to 0.719.

First: C24U G25U
Second: C24U G28A
The self-cleavage of the first is lower: 0.146 for the first, 0.174 for the second.

First: C24U G28C
Second: C24U G28U
The self-cleavage of the first is lower: 0.191 for the first, 0.214 for the second.

Compared with C24U G30C, C24U G31C is lower in self-cleavage: 0.152 for the first, 0.0935 for the second.

Going from C24U G37A to C24U G37C, the self-cleavage rises from 0.167 to 0.223.

Going from C24U G41C to C24U G47C, the self-cleavage rises from 0.303 to 0.915.

Going from C24U G50U to C24U G58A, the self-cleavage falls from 0.852 to 0.516.

Compared with C24U G65C, C24U G68A is higher in self-cleavage: 0.353 for the first, 0.919 for the second.

Going from C24U U26A to C24U U26C, the self-cleavage rises from 0.257 to 0.626.

First: C24U U26G
Second: C24U U36A
The self-cleavage of the first is higher: 0.448 for the first, 0.181 for the second.

Going from C24U U36C to C24U U38G, the self-cleavage falls from 0.37 to 0.166.

Compared with C24U U46G, C24U U49A is lower in self-cleavage: 0.879 for the first, 0.865 for the second.

Going from C24U U49C to C24U U53A, the self-cleavage falls from 0.84 to 0.64.

Going from C24U U53G to C24U U55A, the self-cleavage rises from 0.482 to 0.651.

First: C24U U55C
Second: C24U U55G
The self-cleavage of the first is higher: 0.391 for the first, 0.367 for the second.

Going from C24U U62G to C24U U64G, the self-cleavage rises from 0.386 to 0.466.

Compared with C24U U67A, C24U U69C is higher in self-cleavage: 0.862 for the first, 1.02 for the second.

First: G25A A40G
Second: G25A A51C
The self-cleavage of the first is lower: 0.172 for the first, 0.209 for the second.

Going from G25A A60C to G25A C32A, the self-cleavage rises from 0.142 to 0.22.

Going from G25A C34G to G25A C35A, the self-cleavage rises from 0.19 to 0.21.

Compared with G25A C45G, G25A C45U is lower in self-cleavage: 0.142 for the first, 0.132 for the second.

Compared with G25A C54U, G25A C57G is lower in self-cleavage: 0.248 for the first, 0.129 for the second.

Compared with G25A C63A, G25A C63G is higher in self-cleavage: 0.104 for the first, 0.185 for the second.

Going from G25A C66G to G25A G28A, the self-cleavage falls from 0.223 to 0.131.

Compared with G25A G28U, G25A G30U is higher in self-cleavage: 0.132 for the first, 0.209 for the second.

First: G25A G41A
Second: G25A G47C
The self-cleavage of the first is lower: 0.174 for the first, 0.217 for the second.

Going from G25A G47U to G25A G48C, the self-cleavage rises from 0.198 to 0.218.

Going from G25A G50A to G25A G50C, the self-cleavage rises from 0.195 to 0.28.

Going from G25A G50U to G25A G56A, the self-cleavage falls from 0.267 to 0.154.

Going from G25A G56C to G25A G65C, the self-cleavage falls from 0.213 to 0.178.

First: G25A G65U
Second: G25A U26A
The self-cleavage of the first is lower: 0.134 for the first, 0.186 for the second.

Compared with G25A U44C, G25A U46G is higher in self-cleavage: 0.0881 for the first, 0.174 for the second.

First: G25A U49A
Second: G25A U55A
The self-cleavage of the first is lower: 0.155 for the first, 0.222 for the second.

Compared with G25A U61A, G25A U62G is lower in self-cleavage: 0.173 for the first, 0.16 for the second.

Compared with G25A U67A, G25A U69G is higher in self-cleavage: 0.21 for the first, 0.327 for the second.

Going from G25C A51U to G25C A60U, the self-cleavage falls from 0.152 to 0.114.

Going from G25C C27A to G25C C29A, the self-cleavage falls from 0.146 to 0.143.

Going from G25C C32U to G25C C33G, the self-cleavage rises from 0.179 to 0.235.

Compared with G25C C34U, G25C C35G is lower in self-cleavage: 0.219 for the first, 0.124 for the second.

First: G25C C45A
Second: G25C C57G
The self-cleavage of the first is higher: 0.204 for the first, 0.141 for the second.

First: G25C C57U
Second: G25C C63A
The self-cleavage of the first is lower: 0.143 for the first, 0.235 for the second.

Going from G25C C63G to G25C G28C, the self-cleavage falls from 0.176 to 0.153.

Going from G25C G31A to G25C G37U, the self-cleavage falls from 0.217 to 0.156.

G25C G41U showed a self-cleavage of 0.144.
